Values joined by “and” are separate entries in the source; they are usually repeats but may differ in a detail not shown here. Equal entries are not always repeated.
Experiments:
[1] = test system: rat articular chondrocyte; test: Cell expansion in passaged monolayer culture; type: cell-based
Protocol: (§1) 1. Preparation of primary chondrocyte. The 8-week-old male SD rats were sacrificed under sterile conditions. The articular cartilage, fibrocartilage and elastic cartilage tissue were isolated from the femur joints, meniscus and outer ear respectively using a scalpel. The isolated cartilage were cut into small pieces, washed twice with phosphate buffered saline (PBS), and digested with trypsin (0.25% (w/v) trypsin/0.02% (w/v) EDTA) at 37° C. for 30 min. The articular cartilage and elastic cartilage were further digested with 0.2% type II collagenase for additional 16 h, and the fibrocartilage were further digested with 0.15% type I collagenase for additional 16 h. After digestion, three chondrocytes were passed through 100 μm filter (Falcon, USA) into 15 ml centrifuge tubes, centrifuged at room temperature at 2000 rpm for 5 min. Cells were resuspended in DMEM containing 10% FBS (fetal bovine serum). Trypan blue staining of the freshly isolated cells was used to monitor the percentage of live cells under the microscope. When the number of live cells is more than 95%, it was used for subsequent experiments.
(§2) 3. Culture of primary chondrocytes in monolayer. Three types of primary chondrocytes were suspended in DMEM medium containing 10% FBS, adjusted to 5×10^4 cells/ml, added to 6-well plate with 2 ml medium/well, and incubated in 37° C. at 5% CO2. Experiment was divided into two groups: control group and experimental group (with 3 μg/ml rhMK). Cell medium was changed every two days. When the cells grew to the confluence of 85% to 90%, the cells were collected by trypsin digestion, washed in PBS by centrifugation. The cells were resuspended in DMEM containing 10% FBS. Cell survival was monitored by trypan blue staining. Part of the cells were used for cell passage; some were for RNA extraction; some were cytospined onto a glass slide for later immunohistochemical staining and the slides were stored at −80° C. Primary cells or passage 0 (P0) were cultured for 7 days. The newly passaged cells were further cultured in a 6-well plate for 3 days which was then collected by trypsin-digestion and marked as passage P1. The cell amplification at each passage=total number of cells at output/total number of cells at initial input.

[2] = test system: rat fibrochondrocyte; test: Cell expansion in passaged monolayer culture; type: cell-based
Protocol: as §1, §2

[3] = test system: rat auricular chondrocyte; test: Cell expansion in passaged monolayer culture; type: cell-based
Protocol: as §1, §2

[4] = test system: full-thickness defect of rabbit knee articular cartilage; test: Full-thickness cartilage defect of rabbit knee joint, intra-articular rhMK; type: in vivo, New Zealand white rabbits; conditions: rabbit knee full-thickness cartilage damage model, 18 samples, 13 recovered; no recovery in saline control sides, P<0.01
Protocol: Method. 2-month-old male New Zealand white rabbits (2.0˜2.5 kg weight) were anesthetized with 3% pentobarbital sodium (30 mg/kg) by ear vein injection. After anesthesia, prepare the skin on both sides of the knees were prepared for sterilization. With conventional surgical sterilization and under sterile conditions, the inner side of knees was cut to expose the femoral condyle surface. The full-thickness cartilage injury was made on the femoral condyle surface for both sides of the rabbit knees using an electrical drill. The cartilage hole was 3 mm in diameter and 4 mm in depth. The wound was closed with 4-0 lines. 400,000 units penicillin was injected daily for one week to prevent the wound site infection. 24 hours after surgery, normal saline or rhMK was injected into the knee articular cavity. The injection volume was 0.5 ml, three times a week for 2 weeks. rhMK was injected into one side of the rabbit knee joint, the other side was injected with saline as control. The rabbits were kept in cages and moved freely without fixation of the injured knees. After 2, 4, 6 and 12 weeks, rabbits were sacrificed. Cartilage tissues of the knee joint were removed for routine biopsy. The tissue sections were prepared for H&E, and fast green—Safranin O staining. The histological observation and evaluation were conducted under microscope.

[5] = test system: ACLT-induced rat knee cartilage damage; test: Osteoarthritis induced by anterior cruciate ligament transection (ACLT) of rat knee, intra-articular rhMK; type: in vivo, SD rats
Protocol: Method. 7-week-old male SD rats (250-330 g weight) were anesthetized with 3% pentobarbital sodium (30 mg/kg) by intraperitoneal injection. After anesthesia, the skin was prepared on both sides of the knees. With conventional surgical sterilization and under sterile conditions, the skin and subcutaneous tissue of the knees was cut open from the middle of front knee. The joint capsule was cut along the inner side of the white patellar tendon resulting in patellar dislocation. The anterior cruciate ligament was identified and cut with ophthalmic scissors. The knee was straightened, the patella was relocated, and the wound was sutured layer by layer. Amikacin (100,000 U/ml, injection concentration of 10 mg/kg, a dose of 1 μl/10 g body weight) was injected every day for 4 days to prevent the wound site infection. 14 weeks after the surgery, saline or rhMK was injected into the knee-articular cavity. The rats in sham group without ACLT surgery were not treated; The rats in the ACLT/saline group were injected with 100 μl saline; The rats in ACLT/rhMK-L group were injected with 100 μl rhMK (58.3 μg/kg); In ACLT/rhMK-H group, 100 μl rhMK (525 μg/kg) was given. The injections were given three times one week and continued for two weeks. The rats were maintained in cages with free movement. The rats were sacrificed 2 or 6 weeks after the initiation of the treatments. […]

[6] = test system: rat primary chondrocytes; test: Serum-free culture of chondrocytes; type: cell-based; conditions: for promotion of cell expansion over the control cultures without rhMK: serum-free medium after 24 h in DMEM with 10% FBS
Protocol: as §1
4. Serum-free culture. The primary chondrocytes were cultured with DMEM containing 10% FBS for 24 h and washed with serum-free culture medium once. The cells were further cultured with DMEM medium with ITS+1 (composed of insulin-transferrin-selenium, Sigma, USA). […] Cell medium was changed every two days. When cells grew to the confluence of 85% to 90%, they were collected by trypsin-digestion and subcultured as previously described.

[7] = P0, rhMK 3 μg/ml versus no rhMK
[8] = P1, rhMK 3 μg/ml versus no rhMK
[9] = P2, rhMK 3 μg/ml versus no rhMK

B1: rhMK: recombinant human midkine mature protein (SEQ ID NO.1) expressed in E. coli and purified by ion-exchange chromatography (protein, listed as Homo sapiens)
chain: MKKKDKVKKGGPGSECAEWAWGPCTPSSKDCGVGFREGTCGAQTQRIRCRVPCNWKKEFGADCKYKFENWGACDGGTGTKVRQGTLKKARYNAQCQETIRVTKPCTPKTKAKAKAKKGKGKD
With B1 the “Cell expansion (in fold)” value ([1]; P0, rhMK 3 μg/ml) was 13.5 ± 1.2 fold, the “Proliferation rate (%)” value [1, 7] was 112% and the “Cell expansion (in fold)” value ([1]; P1, rhMK 3 μg/ml) was 12.0 ± 1.4 fold. For the same molecule, the “Proliferation rate (%)” value [1, 8] was 74%, the “Cell expansion (in fold)” value ([1]; P2, rhMK 3 μg/ml) was 11.5 ± 0.5 fold and the “Proliferation rate (%)” value [1, 9] was 48%. The “Cell expansion (in fold)” value ([2]; P0, rhMK 3 μg/ml) was 5.3 ± 1.3 fold, the “Proliferation rate (%)” value [2, 7] was 112% and 110% and the “Cell expansion (in fold)” value ([2]; P1, rhMK 3 μg/ml) was 28.1 ± 3.4 fold. The “Proliferation rate (%)” value [2, 8] was 51%, the “Cell expansion (in fold)” value ([2]; P2, rhMK 3 μg/ml) was 20.9 ± 0.9 fold and the “Proliferation rate (%)” value [2, 9] was 35%. The “Cell expansion (in fold)” value ([3]; P0, rhMK 3 μg/ml) was 7.9 ± 0.1 fold, the “Proliferation rate (%)” value [3, 7] was 65% and the “Cell expansion (in fold)” value ([3]; P1, rhMK 3 μg/ml) was 16.1 ± 1.1 fold. For the same molecule, the “Proliferation rate (%)” value [3, 8] was 66%, the “Cell expansion (in fold)” value ([3]; P2, rhMK 3 μg/ml) was 8.2 ± 1.0 fold and the “Proliferation rate (%)” value [3, 9] was 55%. The “rate of recovery in the rhMK treated side” value [4] was 72.2%, the histological scores ([5]; ACLT/rhMK groups (58.3 and 525 μg/kg intra-articular) versus ACLT/saline group, P<0.05 Kruskal-wallis Test) was “statistically lower than that of the ACLT/saline group” and the “regenerated cartilage layer thickness (histology)” value ([5]; ACLT/rhMK groups versus ACLT/saline group, 18 weeks after ACLT surgery) was “significantly thicker than that of ACLT/saline group”. For the same molecule, the “promotion of cell expansion over the control cultures without rhMK” value ([6]; passage 1) was 34%, the “promotion of cell expansion over the control cultures without rhMK” value ([6]; passage 2) was 51% and the “promotion of cell expansion over the control cultures without rhMK” value ([6]; passage 3) was 18%. The “cell attachment and proliferation in serum-free medium” value ([6]; three types of chondrocytes cultured directly in serum-free medium, rhMK 3 μg/ml) was “did not make the cell attachment and proliferation”.

— patent US9283300B2, “Use of midkine protein and the protein-containing medical device” (GENERAL REGENERATIVES, LTD, priority 2009, dated 2016)
